How the values were obtained:
Assay type in all cases: in vivo
human CD45+ cells [1] = test: Depletion of human CD45+ cells in humanised NSG mice
Description: Adult female NSG mice were sublethally irradiated with 2.5 Gy on the day before transplantation (day −57). Cryopreserved purified CD34+ cells from mobilized peripheral blood from a normal donor were thawed and 0.5×10^6 cells in PBS were injected intravenously into the tail vein of mice (day −56). Human engraftment (human CD45+ cells) in the blood of mice was assessed at day −14 and day −1. Mice were assigned to treatment cohorts so that the median human CD45+ engraftment in the blood between the cohorts was as similar as possible. Mice were injected with 0.3 mg/kg or 1 mg/kg Mab or ADC intravenously via the tail vein. Blood samples were taken after 7 days and analysed by flow cytometry. The bone marrow, blood and spleen of mice were analysed at two weeks post-treatment.

fLuc+ OCIM1 cells = test: Established AML model in NSG mice, treatment 10 days post-injection; conditions: cohorts of 5 mice, all tumor-bearing
Description: NSG mice were transplanted with 7.5×10^6 fLuc+ OCIM1 cells i.v. At 10 days post-injection of AML cells, unconjugated antibody or ADCs were injected i.v. via a tail vein at a dose of 1 mg/kg or 5 mg/kg. Mice were regularly monitored for signs of morbidity for the duration of the experiment. For imaging, mice were injected intraperitoneally with 200 μl of 15 mg/mL D-luciferin (Regis Technologies) in PBS. Mice were subsequently anesthetized with 4% isoflurane and maintained at 2% isoflurane. Ten minutes after injection of D-luciferin, mice were placed with anterior side up inside a IVIS Lumina III (PerkinElmer). A sub-saturating image was captured using the auto-exposure setting in the Living Image software (v4.5). Quantification and preparation of images was also carried out using the same software.

human CD45+ cells [2] = test: Allogeneic stem cell transplant model in humanized NSG mice (YTH24.5-B1 conditioning); conditions: 1 mg/kg
Description: (§1) Adult NSG mice (Charles River Laboratories) were sublethally irradiated with 2.5 Gy in a ^137Cs irradiator. On the following day, mice were injected with 0.5×10^6 freshly thawed cryopreserved human CD34+ cells from a health donor were injected via the tail vein in 150 μL PBS using a 29 gauge MicroFine Plus insulin syringe (BD). Engraftment of human cells in the blood was assessed periodically from 6 weeks after transplantation. At 10 weeks post-transplant, humanized NSG mice were assigned into cohorts with similar median human CD45+ cell engraftment in the blood, as determined by flow cytometry. Mice were injected with PBS or 1 mg/kg YTH24.5-B1. Sixteen 16 days after treatment, mice were transplanted with 0.5×10^6 GFP+CD34+ cells from another healthy donor. Irradiated NSG […] were also transplanted with the GFP+CD34+ from the allogeneic healthy donor as a control for engraftment of the GFP+CD34+ cells. 8 weeks after transplantation of GFP+ cells, mice were culled and blood, spleen and bone marrow taken for analysis by flow cytometry.

human CD45+ cells [3] = test: Allogeneic stem cell transplant model in humanized NSG mice, comparison of payloads; conditions: 1 mg/kg; for mean % hCD45+ engraftment in the bone marrow: 8 weeks after allogeneic GFP+ cells, PBS 14.12%
Description: as §1
Experimental schedule is as previously described in example 16 but with the following modifications. Humanized NSG mice at 10 weeks post-transplant were injected with PBS or 1 mg/kg YTH24.5-B1, YTH54.12-B1, Isotype-B1, YTH24.5-B4 and Isotype-3376. Isotype-B2 and YTH24.5-B2 was given at a dose of 5 mg/kg. Transplantation of 0.5×10^6 GFP+CD34+ from an allogeneic human donor and analysis at 8 weeks post-transplant of GFP+ cells was carried out as previously described.

Molecule	Mean % hCD45 levels in blood, 1 week post-treatment (human CD45+ cells [1]; 0.3 mg/kg i.v.)	Mean % hCD45 levels in blood, 2 weeks Post-treatment (human CD45+ cells [1]; 0.3 mg/kg i.v.)	course of the levels of human CD45+ cells in blood (human CD45+ cells [1]; 0.3 mg/kg, two week period)	Mean % hCD45 levels in blood, 1 week post-treatment (human CD45+ cells [1]; 1 mg/kg i.v.)	Mean % hCD45 levels in blood, 2 weeks Post-treatment (human CD45+ cells [1]; 1 mg/kg i.v.)	Mean % hCD45 levels in blood, Pre-treatment (human CD45+ cells [1]; group later dosed 0.3 mg/kg)	Mean % hCD45 levels in blood, Pre-treatment (human CD45+ cells [1]; group later dosed 1 mg/kg)	mice alive at 60 days (fLuc+ OCIM1 cells)	mean % hCD45 engraftment in the bone marrow (human CD45+ cells [2]; 8 weeks after allogeneic GFP+ cells, PBS 37.5%)	percentage GFP+hCD45+ cells of all human CD45+ cells in bone marrow (mean) (human CD45+ cells [2]; PBS 2.1%, irradiation control 41.3%)	GFP+hCD34+ cells within the human CD34+ compartment in the bone marrow (mean) (human CD45+ cells [2]; PBS 3.7%)	percentage GFP+ human CD34+ cells in the bone marrow (mean) (human CD45+ cells [3])	mean % hCD45+ engraftment in the bone marrow (human CD45+ cells [3])
YTH24.5-B1: rat IgG2b anti-CD45 antibody YTH24.5 conjugated to cleavable PBD drug-linker B1 (drawing 43) (conjugate) heavy: QVNLLQSGAALVKPGASVKLSCKASSYTFTDYYIHWVKQSHGKTLEWIGYINPKSGFTNYNEKFRRKATLTVDKSTNTAYMDISRLTSEDSATYYCTRRTGVIPMDAWGQGASVTVSSAQTTAPSVYPLAPGCGDTTSSTVTLGCLVKGYFPEPVTVTWNSGALSSDVHTFPAVLQSGLYTLTSSVTSSTWPSQTVTCNVAHPASSTKVDKKVERRNGGIGHKCPTCPTCHKCPVPELLGGPSVFIFPPKPKDILLISQNAKVTCVVVDVSEEEPDVQFSWFVNNVEVHTAQTQPREEQYNSTFRVVSALPIQHQDWMSGKEFKCKVNNKALPSPIEKTISKPKGLVRKPQVYVMGPPTEQLTEQTVSLTCLTSGFLPNDIGVEWTSNGHIEKNYKNTEPVMDSDGSFFMYSKLNVERSRWDSRAPFVCSVVHEGLHNHHVEKSISRPPGK light: DVVMTQTPVSLSVSLGGQVSISCRSSQSFVSSDGNTYLNWYLQKPGQSPQLLIYKVSNRLSGVPDRFSGSGSGTDFTLKISRVEHDDLGVYYCGQASKIPLTFGSGTKLEIKRADAAPTVSIFPPSMEQLTSGGATVVCFVNNFYPRDISVKWKIDGSEQRDGVLDSVTDQDSKDSTYSMSSTLSLTKVEYERHNLYTCEVVHKTSSSPVVKSFNRNEC	5.63%	1.75%	persistent loss	1.08%	0.64%	8.89%	6.08%	4/5	9.08%	29.0%	56.6%	59.13%	16.45%
YTH54.12-B1: rat IgG2b anti-CD45 antibody YTH54.12 conjugated to cleavable PBD drug-linker B1 (drawing 43) (conjugate) heavy: EVQLVESGGGLVQPGGSMKLSCAASGFTFSDYYMAWVRQAPKKGLEWVASMSFAGSSTYYGDSVKGRFTISRDNAKTTLYLQMNSLRSEDTATYYCARMYTTDYYLYWYFDFWGPGTMVTVSSAQTTAPSVYPLAPGCGDTTSSTVTLGCLVKGYFPEPVTVTWNSGALSSDVHTFPAVLQSGLYTLTSSVTSSTWPSQTVTCNVAHPASSTKVDKKVERRNGGIGHKCPTCPTCHKCPVPELLGGPSVFIFPPKPKDILLISQNAKVTCVVVDVSEEEPDVQFSWFVNNVEVHTAQTQPREEQYNSTFRVVSALPIQHQDWMSGKEFKCKVNNKALPSPIEKTISKPKGLVRKPQVYVMGPPTEQLTEQTVSLTCLTSGFLPNDIGVEWTSNGHIEKNYKNTEPVMDSDGSFFMYSKLNVERSRWDSRAPFVCSVVHEGLHNHHVEKSISRPPGK light: DVQMTQSPSYLAASPGESVSISCKASKSISNYLAWYQQKPGEANKILIYSGSTLQSGTPSRFSGSGSGTDFSLTIRNLEPEDFAVYYCQQYDEKPLTFGSGTKLEIKRADAAPTVSIFPPSMEQLTSGGATVVCFVNNFYPRDISVKWKIDGSEQRDGVLDSVTDQDSKDSTYSMSSTLSLTKVEYERHNLYTCEVVHKTSSSPVVKSFNRNEC	2.99%	1.31%	–	0.75%	0.38%	5.37%	6.14%	–	–	–	–	69.40%	16.34%

From US20220096654A1, “PYRROLOBENZODIAZEPINE-ANTIBODY CONJUGATES AND USES THEREOF” (ADC THERAPEUTICS SA, priority 2020, published 2022)
